Experimental findings from patent publication US20170145086A1 (VISTERRA, published 2017) are described below.

Experiment [1] has as its target T1, HA-GCN4 hAPRIL (amino acid residues 105-250) (human, UniProt O75888 105-250).
T1 construct: Bought (R&D Systems); also called HA-tagged GCN4 human APRIL; HA-GCN4-huAPRIL; not shown: N-terminal HA tag; GCN4 isoleucine zipper oligomerization domain
T1 sequence: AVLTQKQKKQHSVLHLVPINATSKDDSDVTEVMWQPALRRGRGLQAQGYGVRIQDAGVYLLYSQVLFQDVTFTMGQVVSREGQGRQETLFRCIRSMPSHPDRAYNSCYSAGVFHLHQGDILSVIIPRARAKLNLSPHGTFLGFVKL
In words: indirect ELISA on HA-GCN4 human APRIL, 3-parameter fit. How it is done: FIG. 5 depicts the binding of anti-APRIL antibodies to human APRIL. Relative binding of select anti-APRIL antibodies was measured by indirect ELISA. Select antibodies based on prior hybridoma screening were recombinantly produced (based on immunoglubin VH and VL gene sequencing) as described. HA-tagged GCN4 human APRIL R&D Systems was used as source of APRIL. Binding data was analyzed by non-linear regression using a three parameter fit.
(§1) Purified antibodies were further characterized for APRIL binding, APRIL species cross reactivity (human APRIL vs. mouse APRIL), and receptor blocking activity using TACI-Fc. For binding, an APRIL-based indirect ELISA was used to determine by first approximation the relative affinity of purified anti-APRIL antibodies to either human APRIL or mouse APRIL. ELISA method was as generally described above. […] Blocking and wash steps were completed as described. Binding of anti-APRIL antibodies to APRIL was quantified using an 8 point dilution of test antibody that spanned over a four log scale. Antibody binding to APRIL was detected using a rabbit anti-mouse IgG (H+L)-HRP conjugate (Jackson ImmunoResearch Laboratories). Antibody binding data was analyzed by non-linear regression analysis using a 3 parameter fit to determine max binding and apparent EC₅₀ values. […] Mouse specific antibody Apry-1-1 (Adipogen) was likewise used for quantification of antibody binding to mouse APRIL.

Experiment [2] deals with T2, HA-GCN4 mAPRIL (amino acid residues 96-241) (mouse, UniProt Q9D777 96-241, Assembles as a homotrimer through the GCN4 zipper; one protomer is given.).
T2 construct: Bought (R&D Systems); also called HA-tagged mouse APRIL (R&D Systems); recombinant mouse APRIL; not shown: N-terminal HA tag and GCN4 isoleucine-zipper trimerisation domain, with any linker, of the bought R&D Systems protein
T2 sequence: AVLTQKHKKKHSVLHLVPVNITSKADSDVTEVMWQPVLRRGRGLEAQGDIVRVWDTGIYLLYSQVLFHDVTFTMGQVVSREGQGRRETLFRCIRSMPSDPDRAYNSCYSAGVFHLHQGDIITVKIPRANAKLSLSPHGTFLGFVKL
The experiment can be described thus: blocking ELISA; blocked: mouse APRIL binding to human BCMA-Fc. How it is done: Recombinant TACI-Fc or BCMA-Fc was coated on 96 well plates in 0.1 M carbonate-bicarbonate buffer (pH 9.6), overnight at 4° C. Plates were washed three times with 1×PBST (PBS+0.025% Tween 20) followed by blocking with 1% BSA in 1×PBS, 37° C. for 1 hour. All subsequent wash steps were carried out with 1×PBST. To assess antibody blocking, either 15 ng/mL or 50 ng/mL HA-GCN4-huAPRIL was preincubated with varying antibody concentrations ranging from 0.03-30 μg/mL in binding buffer comprised of 1% BSA and 0.025% Tween-20 in 1×PBS. Preincubation was carried out at 30° C. for 1 hour with mixing. Antibody-APRIL premix with 50 ng/mL APRIL or 15 ng/mL APRIL was then added to TACI-Fc coated or BCMA-Fc coated plates, respectively, and incubated for an additional hour at 30° C. HA-tagged APRIL binding to either receptor was quantified using a goat polyclonal anti-HA tag-HRP antibody (Abcam) added at a 1:10000 dilution followed by colorimetric development using 100 μl/well of freshly prepared TMB substrate (KPL) carried out for up to 30 minutes at room temperature before quenching enzymatic reaction by the addition of 1N sulfuric acid. ELISA signal was quantified by absorbance at 450 nm. ELISA data was analyzed by non-linear regression. IC₅₀ values were calculated based on a 4 parameter fit of antibody titration curves. […]

Experiment [3] addresses T1, HA-GCN4 hAPRIL (amino acid residues …). In words: blocking ELISA; blocked: human APRIL binding to human TACI-Fc. On the set-up: concentration or dose not given beside the values. On the procedure:
(§2) Recombinant TACI-Fc or BCMA-Fc was coated on 96 well plates in 0.1 M carbonate-bicarbonate buffer (pH 9.6), overnight at 4° C. Plates were washed three times with 1×PBST (PBS+0.025% Tween 20) followed by blocking with 1% BSA in 1×PBS, 37° C. for 1 hour. All subsequent wash steps were carried out with 1×PBST. To assess antibody blocking, either 15 ng/mL or 50 ng/mL HA-GCN4-huAPRIL was preincubated with varying antibody concentrations ranging from 0.03-30 μg/mL in binding buffer comprised of 1% BSA and 0.025% Tween-20 in 1×PBS. Preincubation was carried out at 30° C. for 1 hour with mixing. Antibody-APRIL premix with 50 ng/mL APRIL or 15 ng/mL APRIL was then added to TACI-Fc coated or BCMA-Fc coated plates, respectively, and incubated for an additional hour at 30° C. HA-tagged APRIL binding to either receptor was quantified using a goat polyclonal anti-HA tag-HRP antibody (Abcam) added at a 1:10000 dilution followed by colorimetric development using 100 μl/well of freshly prepared TMB substrate (KPL) carried out for up to 30 minutes at room temperature before quenching enzymatic reaction by the addition of 1N sulfuric acid. ELISA signal was quantified by absorbance at 450 nm. ELISA data was analyzed by non-linear regression. IC₅₀ values were calculated based on a 4 parameter fit of antibody titration curves. […] Non-blocking antibodies Aprly-1 or Aprly-5 (Enzo Biosciences) were used as negative controls. Mouse specific, blocking antibody aprily-1-1 (Adipogen) was generally used as a positive control in experiments using mouse APRIL (HA-GCN4-mAPRIL).

For experiment [4] the target is unchanged. The experiment can be described thus: blocking ELISA, 4-parameter fit; blocked: human APRIL binding to human BCMA-Fc. How it is done:
as §2

Experiment [5] shares this target. The experiment can be described thus: cell-based or functional assay.
Experiment [6] has the same target. The experiment can be described thus: indirect ELISA on human APRIL; row printed 4504, legend paragraph 738 says 4540. Background: In an ELISA, binding on a coated surface is turned into a signal by an enzyme label.
The target in experiment [7] is T2, HA-GCN4 mAPRIL (amino acid residues …). In words: indirect ELISA on mouse APRIL; row printed 4504, legend paragraph 738 says 4540.
The target of experiment [8] is T1, HA-GCN4 hAPRIL (amino acid residues …). The experiment can be described thus: blocking ELISA; blocked: human APRIL binding to TACI-Fc.
Experiment [9] has the same target. The experiment can be described thus: indirect ELISA on coated HA-GCN4 human APRIL; EC50 from non-linear regression.
Text: as §1

Where “and” joins values, the source holds several entries; their conditions need not be identical. Identical values can stand only once. Bounds are passed on as bounds.

B1: monoclonal antibody 3530 (antibody, mouse IgG2, V domains shown)
VH: QVQLQQSGAELVRPGASVKLSCKASGYTFTDHEMHWVRQTPVHGLEWIGVIDPDTGDTTYNQKFKGKATLTADKSSSTAYMDLRSLTSEDSAVFYCTRWTGGDYWGHGTTLTVSS
VL: DAVMTQTPLSLSVTIGQPASISCKSSQSLLYSDGKTYLNWFQQRPGQSPKRLMYQVSKLDPGIPDRFSGSGSETDFTLKISRVEAEDLGVYYCLQGTYYPYTFGSGTKLEIK
One may read the EC50 as the concentration at which the effect is half-maximal. What is called % Inhibition is how much of the control response was suppressed. What is called IC50 is the concentration that gives 50% inhibition. As for B1, the EC50 in [1] is 0.058 µg/mL and 0.392 nM. Further, the “IC50 (read off the curve)” value in experiment [2] is around 0.3 µg/mL. In experiment [3], the “% Inhibition” value was found to be 81%. Besides, the IC50 in experiment [4] is 0.68 nM.

B2: monoclonal antibody 4540 (antibody, V domains shown)
VH: QVQLQQSGPELVKPGASVKISCKASGYTFADYYINWVKQRPGQGLEWIGWIFPGSGSTYYNEKFKGKATLTVDKSSSTAYMLLSSLTSEDSAVYFCARGDSGRAMDYWGQGTSVTVSS
VL: DIQMTQSPSSLSASLGGKVTITCKASQDINKYIAWYQHKPGKGPRLLIHYTSTLQSGIPSRFSGSGSGRDYSFSISNLEPEDNATYYCLQYDNLLTFGAGTKLELK
notes: mouse-derived
On to B2, for which, in experiment [5], the “IC50 (inhibition of APRIL-mediated BCMA NFκB signaling)” value is around 0.81 nM and the “IC50 (inhibition of APRIL-mediated TACI NFκB signaling)” value is around 2.25 nM. Moreover, in [6], the response was half-maximal at 0.00139 nM (EC50). This molecule also displayed an EC50 in experiment [7] of 0.00151 nM. Moreover, in experiment [8], the IC50 was 0.4 nM and the “Relative Activity (normalised to 2419)” value came out at 1.45.

B3: monoclonal antibody 2218 (antibody, mouse IgG2, V domains shown)
VH: DVQLQESGPGLVKPSQSLSLTCSVTGYSITSGYYWNWIRQFPGNKLEWMGYISYDGYNNYNPSLKNRISITRDTSKNQFFLKLNSVTTEDTATYYCANYYDYEDWYFGVWGTGTTVTVSS
VL: DIVLTQSPASLAMSLGKRATISCRASESVSIIGTNSIHWYQQKPGQPPKLLIYHASNLETGVPARFSGSGSRTDFTLTIDPVEEDDVAIYYCLQSRKIPYTFGGGTKLEIK
B3: the EC50 in experiment [1] was 0.0126 µg/mL and 0.085 nM; in [9], below 0.2 nM. In addition, the “% Inhibition” value in experiment [3] is 91%. The IC50 in experiment [4] was 0.22 nM.
